# Source: US20180318386A1, “PEPTIDES AND METHODS OF TREATING ENDOMETRIOSIS USING THE SAME” (BIOINCEPT, LLC, priority 2014, published 2018)
# How the values were obtained:
# [1] = molecular target: Glucosidase 2 subunit beta (human) (UniProt P14314); experiment: PIF affinity resin pull-down, CD4+ cell lysate, LC-MS/MS count
# [2] = molecular target: Histone H2A type 1-B/E (human) (UniProt P04908); experiment: as above
# Calmodulin (human) [3] = molecular target: Calmodulin (human) (UniProt P0DP23); experiment: as above
# Thrombospondin-4 (human) [4] = molecular target: Thrombospondin-4 (human) (UniProt P35443); experiment: as above
# [5] = molecular target: Tropomyosin alpha-4 chain (human) (UniProt P67936); experiment: PIF affinity resin pull-down, CD8+ cell lysate, LC-MS/MS count
# Thymosin alpha-1 (human) = Thymosin alpha-1 (human) (UniProt P06454); experiment: as above
# [6] = molecular target: Serum deprivation-response protein (human) (UniProt O95810); experiment: as above
# Serum albumin (human) = Serum albumin (human) (UniProt P02768); experiment: as above
# [7] = molecular target: Nuclease-sensitive element-binding protein 1 (Fragment) (human) (UniProt P67809); experiment: as above
# [8] = molecular target: Isoform 2 of Protein SET (human) (UniProt Q01105); experiment: as above
# [9] = molecular target: Cartilage oligomeric matrix protein (human) (UniProt P49747); experiment: as above
# Nucleolin (human) = Nucleolin (human) (UniProt P19338); experiment: as above
# [10] = molecular target: Serine/arginine-rich-splicing factor 1 (human) (UniProt Q07955); experiment: as above
# Calmodulin (human) [11] = molecular target: Calmodulin (human) (UniProt P0DP23); experiment: as above
# [12] = molecular target: 14-3-3 protein zeta/delta (human) (UniProt P63104); experiment: as above
# Thrombospondin-1 (human) = Thrombospondin-1 (human) (UniProt P07996); experiment: as above
# [13] = molecular target: Hepatoma-derived growth factor (human) (UniProt P51858); experiment: as above
# Thrombospondin-4 (human) [14] = molecular target: Thrombospondin-4 (human) (UniProt P35443); experiment: as above
# Cofilin-1 (human) = Cofilin-1 (human) (UniProt P23528); experiment: as above
# Talin-1 (human) = Talin-1 (human) (UniProt Q9Y490); experiment: as above
# [15] = molecular target: Isoform 2 of Heat shock protein HSP 90-alpha (human) (UniProt P07900); experiment: as above
# [16] = molecular target: Acidic leucine-rich nuclear phosphoprotein 32 family member A (human) (UniProt P39687); experiment: as above
# Calreticulin (human) = Calreticulin (human) (UniProt P27797); experiment: as above
# [17] = molecular target: Actin, cytoplasmic 1 (human) (UniProt P60709); experiment: as above
# Sequence of Glucosidase 2 subunit beta (human) (P14314 other isoform, or with tags, fused parts or gaps limits assumed): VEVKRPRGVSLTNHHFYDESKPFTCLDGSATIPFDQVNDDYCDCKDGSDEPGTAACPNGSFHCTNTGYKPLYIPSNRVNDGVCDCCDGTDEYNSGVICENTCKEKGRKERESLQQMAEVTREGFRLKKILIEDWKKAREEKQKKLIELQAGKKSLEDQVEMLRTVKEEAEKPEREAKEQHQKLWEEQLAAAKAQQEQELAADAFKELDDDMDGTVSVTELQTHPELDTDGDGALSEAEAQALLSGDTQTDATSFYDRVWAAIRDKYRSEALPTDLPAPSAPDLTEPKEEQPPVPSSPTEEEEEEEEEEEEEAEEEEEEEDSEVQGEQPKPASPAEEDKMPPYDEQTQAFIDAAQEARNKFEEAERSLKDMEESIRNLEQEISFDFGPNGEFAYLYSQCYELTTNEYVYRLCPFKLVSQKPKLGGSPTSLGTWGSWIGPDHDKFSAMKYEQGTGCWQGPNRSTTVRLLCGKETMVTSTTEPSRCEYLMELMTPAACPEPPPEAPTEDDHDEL
# Sequence of Thrombospondin-4 (human) (P35443 27-961 limits assumed): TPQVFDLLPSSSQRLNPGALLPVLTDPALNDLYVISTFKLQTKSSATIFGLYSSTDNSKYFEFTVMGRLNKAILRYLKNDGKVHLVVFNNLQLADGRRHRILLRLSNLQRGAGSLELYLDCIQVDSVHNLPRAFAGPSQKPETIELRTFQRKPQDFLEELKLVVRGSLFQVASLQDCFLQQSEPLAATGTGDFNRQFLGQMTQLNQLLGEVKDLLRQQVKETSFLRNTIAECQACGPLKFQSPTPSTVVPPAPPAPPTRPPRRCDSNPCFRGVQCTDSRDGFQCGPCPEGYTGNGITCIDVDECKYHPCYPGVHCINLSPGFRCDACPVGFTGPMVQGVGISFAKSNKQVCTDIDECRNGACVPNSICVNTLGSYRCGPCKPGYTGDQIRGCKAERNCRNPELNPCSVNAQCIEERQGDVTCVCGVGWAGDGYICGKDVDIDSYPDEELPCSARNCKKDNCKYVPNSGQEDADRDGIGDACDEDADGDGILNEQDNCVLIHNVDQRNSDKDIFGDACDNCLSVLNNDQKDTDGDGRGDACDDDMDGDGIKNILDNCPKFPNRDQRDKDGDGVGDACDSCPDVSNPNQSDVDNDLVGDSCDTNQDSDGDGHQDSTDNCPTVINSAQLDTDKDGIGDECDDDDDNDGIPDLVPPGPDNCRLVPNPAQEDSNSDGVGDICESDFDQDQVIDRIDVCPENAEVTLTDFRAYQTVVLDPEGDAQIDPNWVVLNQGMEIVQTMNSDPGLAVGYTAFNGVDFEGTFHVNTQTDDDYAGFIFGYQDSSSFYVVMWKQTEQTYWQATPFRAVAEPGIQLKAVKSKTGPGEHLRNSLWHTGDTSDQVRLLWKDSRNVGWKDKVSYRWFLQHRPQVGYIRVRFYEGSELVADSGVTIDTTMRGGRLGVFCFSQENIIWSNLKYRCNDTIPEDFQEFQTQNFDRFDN
# Sequence of 14-3-3 protein zeta/delta (human) (P63104 whole entry, stated change not applied): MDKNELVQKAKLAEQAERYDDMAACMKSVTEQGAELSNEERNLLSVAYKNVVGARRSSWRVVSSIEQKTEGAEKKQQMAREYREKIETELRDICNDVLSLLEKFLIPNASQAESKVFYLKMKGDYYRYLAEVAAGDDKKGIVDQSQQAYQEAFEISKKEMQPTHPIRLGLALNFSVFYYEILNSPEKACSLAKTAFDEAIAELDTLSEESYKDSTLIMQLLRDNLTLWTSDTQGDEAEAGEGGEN
# Sequence of Thymosin alpha-1 (human) (P06454 other isoform, or with tags, fused parts or gaps limits assumed): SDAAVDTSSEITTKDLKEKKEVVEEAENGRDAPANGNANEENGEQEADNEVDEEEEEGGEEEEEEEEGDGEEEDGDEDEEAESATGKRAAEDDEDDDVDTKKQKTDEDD
# Sequence of Serum deprivation-response protein (human) (O95810 2-425 limits assumed): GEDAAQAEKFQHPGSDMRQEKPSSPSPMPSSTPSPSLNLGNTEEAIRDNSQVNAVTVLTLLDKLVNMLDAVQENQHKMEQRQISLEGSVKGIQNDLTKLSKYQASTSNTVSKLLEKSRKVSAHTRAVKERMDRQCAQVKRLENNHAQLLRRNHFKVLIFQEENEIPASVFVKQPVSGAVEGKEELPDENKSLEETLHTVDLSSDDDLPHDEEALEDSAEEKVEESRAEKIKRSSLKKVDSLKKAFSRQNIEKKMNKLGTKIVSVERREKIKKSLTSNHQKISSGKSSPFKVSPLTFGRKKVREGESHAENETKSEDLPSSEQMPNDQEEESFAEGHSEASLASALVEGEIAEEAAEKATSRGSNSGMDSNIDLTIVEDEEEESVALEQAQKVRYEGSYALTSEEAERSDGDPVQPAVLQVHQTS
# Sequence of Nuclease-sensitive element-binding protein 1 (Fragment) (human) (P67809 2-324 limits assumed): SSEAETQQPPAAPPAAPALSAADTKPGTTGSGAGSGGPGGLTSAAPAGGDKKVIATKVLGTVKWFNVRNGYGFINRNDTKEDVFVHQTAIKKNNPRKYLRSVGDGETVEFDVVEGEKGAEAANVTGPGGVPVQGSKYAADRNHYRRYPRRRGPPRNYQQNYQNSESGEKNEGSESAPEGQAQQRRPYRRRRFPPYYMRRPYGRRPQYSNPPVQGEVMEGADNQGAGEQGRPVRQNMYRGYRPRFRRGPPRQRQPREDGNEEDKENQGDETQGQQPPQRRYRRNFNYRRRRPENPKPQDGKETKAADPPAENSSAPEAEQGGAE
# Sequence of Tropomyosin alpha-4 chain (human) (P67936 2-248 limits assumed): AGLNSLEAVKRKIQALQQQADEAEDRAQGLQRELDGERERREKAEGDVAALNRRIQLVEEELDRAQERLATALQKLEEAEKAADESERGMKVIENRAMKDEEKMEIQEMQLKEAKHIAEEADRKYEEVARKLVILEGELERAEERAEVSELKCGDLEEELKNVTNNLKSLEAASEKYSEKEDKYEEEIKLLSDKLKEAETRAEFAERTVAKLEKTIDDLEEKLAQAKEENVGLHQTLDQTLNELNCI
# Sequence of Hepatoma-derived growth factor (human) (P51858 whole entry): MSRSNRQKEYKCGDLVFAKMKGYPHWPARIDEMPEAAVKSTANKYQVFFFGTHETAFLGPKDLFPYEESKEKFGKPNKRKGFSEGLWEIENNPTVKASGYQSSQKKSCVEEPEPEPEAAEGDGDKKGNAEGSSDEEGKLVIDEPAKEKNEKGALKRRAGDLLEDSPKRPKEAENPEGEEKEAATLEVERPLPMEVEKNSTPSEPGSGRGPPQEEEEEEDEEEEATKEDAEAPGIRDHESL
# Sequence of Calreticulin (human) (P27797 18-417 limits assumed): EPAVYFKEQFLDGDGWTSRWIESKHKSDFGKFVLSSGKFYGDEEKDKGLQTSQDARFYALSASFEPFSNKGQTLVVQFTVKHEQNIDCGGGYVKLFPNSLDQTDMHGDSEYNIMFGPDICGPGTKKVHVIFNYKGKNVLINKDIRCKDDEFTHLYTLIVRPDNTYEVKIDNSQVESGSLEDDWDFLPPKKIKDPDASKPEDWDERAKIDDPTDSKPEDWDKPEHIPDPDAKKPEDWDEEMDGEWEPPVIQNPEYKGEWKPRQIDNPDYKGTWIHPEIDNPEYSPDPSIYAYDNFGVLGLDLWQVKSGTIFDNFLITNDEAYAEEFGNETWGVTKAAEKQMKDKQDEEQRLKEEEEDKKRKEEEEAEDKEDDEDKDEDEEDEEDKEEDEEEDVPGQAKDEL
# Sequence of Isoform 2 of Protein SET (human) (Q01105 other isoform, or with tags, fused parts or gaps limits assumed): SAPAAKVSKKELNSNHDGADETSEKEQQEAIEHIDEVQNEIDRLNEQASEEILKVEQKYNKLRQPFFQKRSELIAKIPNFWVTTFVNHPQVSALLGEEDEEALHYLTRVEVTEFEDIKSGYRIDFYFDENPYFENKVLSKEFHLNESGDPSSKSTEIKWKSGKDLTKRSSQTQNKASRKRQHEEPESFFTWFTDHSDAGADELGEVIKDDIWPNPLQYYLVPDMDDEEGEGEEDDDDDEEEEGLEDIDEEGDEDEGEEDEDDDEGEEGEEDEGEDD
# Sequence of Thrombospondin-1 (human) (P07996 19-1170 limits assumed): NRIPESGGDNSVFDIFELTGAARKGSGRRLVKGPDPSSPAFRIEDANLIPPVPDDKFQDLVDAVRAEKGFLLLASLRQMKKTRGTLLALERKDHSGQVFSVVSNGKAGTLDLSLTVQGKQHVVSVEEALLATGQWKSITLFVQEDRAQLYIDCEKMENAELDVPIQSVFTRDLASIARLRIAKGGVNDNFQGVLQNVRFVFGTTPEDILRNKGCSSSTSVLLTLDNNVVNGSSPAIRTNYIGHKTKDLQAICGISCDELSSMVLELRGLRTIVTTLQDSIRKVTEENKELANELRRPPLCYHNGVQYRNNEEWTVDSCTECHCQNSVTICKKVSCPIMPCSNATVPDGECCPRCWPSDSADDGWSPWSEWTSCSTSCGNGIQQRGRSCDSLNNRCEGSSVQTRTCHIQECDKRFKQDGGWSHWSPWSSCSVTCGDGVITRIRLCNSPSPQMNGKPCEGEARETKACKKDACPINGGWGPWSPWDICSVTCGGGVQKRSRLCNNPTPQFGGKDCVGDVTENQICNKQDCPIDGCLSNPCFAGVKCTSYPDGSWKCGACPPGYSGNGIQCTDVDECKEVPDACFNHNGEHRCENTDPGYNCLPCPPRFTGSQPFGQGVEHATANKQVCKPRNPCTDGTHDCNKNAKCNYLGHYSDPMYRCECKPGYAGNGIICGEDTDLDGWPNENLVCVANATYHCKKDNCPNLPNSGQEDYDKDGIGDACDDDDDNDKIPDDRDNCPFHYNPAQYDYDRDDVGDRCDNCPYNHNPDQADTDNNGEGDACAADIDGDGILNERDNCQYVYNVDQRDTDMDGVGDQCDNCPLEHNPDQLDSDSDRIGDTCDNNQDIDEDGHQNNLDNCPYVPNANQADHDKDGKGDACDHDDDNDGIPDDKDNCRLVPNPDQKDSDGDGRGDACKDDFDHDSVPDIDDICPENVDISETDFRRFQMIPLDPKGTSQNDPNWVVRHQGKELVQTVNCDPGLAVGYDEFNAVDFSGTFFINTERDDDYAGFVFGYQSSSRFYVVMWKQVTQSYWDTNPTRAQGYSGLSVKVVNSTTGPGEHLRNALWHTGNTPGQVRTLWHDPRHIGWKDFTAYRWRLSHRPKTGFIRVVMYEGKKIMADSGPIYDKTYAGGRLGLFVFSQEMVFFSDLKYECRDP
substance,measurement,setting,value
PIF15 affinity resin (Cys-C6 spacer-PIF15 conjugated to agarose) (peptide),Ave,[1],1
same,Inject 1,[1],1
same,Inject 2,[1],1
same,Inject 3,[1],1
same,Ave,[2],2
same,Inject 1,[2],2
same,Inject 2,[2],2
same,Inject 3,[2],2
same,Ave,Calmodulin (human) [3],3
same,Inject 1,Calmodulin (human) [3],3
same,Inject 2,Calmodulin (human) [3],3
same,Inject 3,Calmodulin (human) [3],3
same,Ave,Thrombospondin-4 (human) [4],3
same,Inject 1,Thrombospondin-4 (human) [4],3
same,Inject 2,Thrombospondin-4 (human) [4],3
same,Inject 3,Thrombospondin-4 (human) [4],3
same,Ave,[5],3
same,Inject 1,[5],3
same,Inject 2,[5],3
same,Inject 3,[5],3
same,Ave,Thymosin alpha-1 (human),3
same,Inject 1,Thymosin alpha-1 (human),2
same,Inject 2,Thymosin alpha-1 (human),2
same,Inject 3,Thymosin alpha-1 (human),4
same,Ave,[6],2
same,Inject 1,[6],2
same,Inject 2,[6],2
same,Inject 3,[6],2
same,Ave,Serum albumin (human),6
same,Inject 1,Serum albumin (human),3
same,Inject 2,Serum albumin (human),6
same,Inject 3,Serum albumin (human),8
same,Ave,[7],1
same,Inject 1,[7],1
same,Inject 2,[7],1
same,Inject 3,[7],1
same,Ave,[8],1
same,Inject 1,[8],1
same,Inject 2,[8],1
same,Inject 3,[8],1
same,Ave,[9],4
same,Inject 1,[9],4
same,Inject 2,[9],4
same,Inject 3,[9],5
same,Ave,Nucleolin (human),1
same,Inject 1,Nucleolin (human),1
same,Inject 2,Nucleolin (human),1
same,Inject 3,Nucleolin (human),1
same,Ave,[10],1
same,Inject 1,[10],1
same,Inject 2,[10],1
same,Inject 3,[10],1
same,Ave,Calmodulin (human) [11],2
same,Inject 1,Calmodulin (human) [11],2
same,Inject 2,Calmodulin (human) [11],2
same,Inject 3,Calmodulin (human) [11],2
same,Ave,[12],2
same,Inject 1,[12],2
same,Inject 2,[12],2
same,Inject 3,[12],2
same,Ave,Thrombospondin-1 (human),7
same,Inject 1,Thrombospondin-1 (human),7
same,Inject 2,Thrombospondin-1 (human),7
same,Inject 3,Thrombospondin-1 (human),7
same,Ave,[13],1
same,Inject 1,[13],1
same,Inject 2,[13],1
same,Inject 3,[13],1
same,Ave,Thrombospondin-4 (human) [14],3
same,Inject 1,Thrombospondin-4 (human) [14],3
same,Inject 2,Thrombospondin-4 (human) [14],3
same,Inject 3,Thrombospondin-4 (human) [14],3
same,Ave,Cofilin-1 (human),1
same,Inject 1,Cofilin-1 (human),1
same,Inject 2,Cofilin-1 (human),1
same,Inject 3,Cofilin-1 (human),1
same,Ave,Talin-1 (human),1
same,Inject 1,Talin-1 (human),1
same,Inject 2,Talin-1 (human),1
same,Inject 3,Talin-1 (human),1
same,Ave,[15],2
same,Inject 1,[15],2
same,Inject 2,[15],2
same,Inject 3,[15],2
same,Ave,[16],2
same,Inject 1,[16],2
same,Inject 2,[16],2
same,Inject 3,[16],2
same,Ave,Calreticulin (human),2
same,Inject 1,Calreticulin (human),2
same,Inject 2,Calreticulin (human),2
same,Inject 3,Calreticulin (human),2
same,Ave,[17],3
same,Inject 1,[17],3
same,Inject 2,[17],3
same,Inject 3,[17],3
